Here are results for 1 molecule from patent publication EP1680442B1 (Bioincept, LLC., dated 2011).

Ends that are not written are not given here.

This test addresses T1, AbPIF-1(15).
T1 construct: also called AbPIP-1(15); PIF-1 antibody
The test can be described thus: competition ELISA, pAb coated at 4.5 ug/ml, unlabelled against biotinylated peptide.

B1: sPIF-1(15) (peptide)
peptide: MVRIKPGSANKPSDD
modifications: not fully specified; also: flow cytometry form: FITC on N-terminus via β-alanine spacer
notes: Synthetic 15-residue peptide; In flow cytometry it carried FITC on the N-terminus through a b-alanine spacer; also called synthetic PIF-1; FITC sPIF-1(15)
As to B1, the IC50 (in general, the point on the concentration scale where inhibition reaches its midpoint) lay in the range of 0.5 to 0.7 nM.
